The record followed here is patent US7709240B2, “AMP deaminase originating streptomyces and utilization thereof” (Amano Enzyme Inc., priority 2004, dated 2010).

A short description of data set [1]: pH stability of purified enzyme. The conditions noted are these: pH from about 6.5 to about 8.0, 30° C. for 30 minutes; treatment at pH 7.0 = reference. Type of data set: physicochemical. On the procedure: Next, pH stability of the enzyme was examined by the following procedure. An enzyme solution (0.15 ml) containing 2.8 μg protein (total amount) was adjusted to pH 3 to 8 by using McIlvaine buffer solution, and to pH 8 to 10 by using Atkins-pantin buffer solution. The solution was then allowed to stand at 30° C. for 30 minutes. Thereafter, the residual activity (percent with respect to the enzyme activity in the case where the treatment was carried out in pH 7.0) was measured. It is shown that in the range of pH from about 6.0 to about 8.5, relatively high activity is maintained, and in the range of pH from about 6.5 to about 8.0, about 80% or more of activity is maintained.

Data set [2] is described as follows: Thermostability of purified enzyme: residual activity after 30 minutes at each temperature. The format is physicochemical. On the procedure:
(§1) By using the decrease of OD265 at the time of reaction as an index, the enzyme activity was measured. To 1.5 ml of solution obtained by mixing 0.017M 5′ AMP-2Na and 1/15M phosphate buffer solution (pH 5.6) at the ratio of 1:2, 0.5 ml of sample solution was added so as to obtain a reaction solution, which was reacted at 37° C. for 15 minutes. Then, 2% perchloric acid solution was added so as to stop the reaction and 100 μl of the solution was taken out. Water was added to the solution so that the total amount was 5 ml. Then, OD265 was measured. The value similarly measured at reaction time of 0 minute was defined as a blank. Under the above-mentioned conditions, a case where an absorbance difference is reduced by 0.001 during 60 minutes was defined as one unit.
Subsequently, the thermostability of the enzyme was examined by the following procedure. An enzyme solution (0.15 ml) containing 2.8 μg protein (total amount) was adjusted to pH 5.6 by using acetate buffer (pH 5.0), and then treated for 30 minutes at each temperature (40° C., 50° C., 60° C., 65° C., 70° C., and 75° C.). Then, the residual activity (percent with respect to the enzyme activity in the case where the treatment was not carried out) was measured. At 65° C. or less, about 90% or more of activity is maintained. Furthermore, also when the treatment is carried out at 70° C., about 55% of the activity is maintained.

The nature of data set [3]: Thermostability of crude enzyme solutions / culture supernatant: residual AMP deaminase activity after 30 minutes. The conditions noted are these: enzyme solution or culture supernatant treated 30 minutes at 30-75° C., pH 5.6. The format is physicochemical. On the procedure:
as §1, with “unit. […]” for “unit.”
Then, in the genus Streptomyces in the stored strains of Amano Enzyme Inc., screening of AMP deaminase producing strain was carried out. […] Furthermore, the residual activity was measured when the activity obtained when treatment was not carried out was defined as 100%. […]
The thermostability of AMP deaminase produced by transformant (SAD-1) was measured. Culture supernatant of SAD-1 prepared by the above-mentioned method was treated at a predetermined temperature, and the residual AMP deaminase activity was measured (pH 5.6). […]

Data set [4] can be described thus: Chromatofocusing (isoelectric point). The format is physicochemical. The conditions noted are these: 8.12 = main fraction; at least two isozymes. As for the experimental part: In order to obtain an isoelectric point of AMP deaminase derived from Streptomyces murinus obtained by the above-mentioned method, chromatofocusing was carried out. By using MonoP column (Pharmacia), a starting buffer (Start Buffer) and an elution buffer (Poly buffer 96) were adjusted to pH 4.0 with 0.075M Tris acetate buffer (pH9.3) and with hydrochloric acid, respectively. The final amount was made to 100 ml. Furthermore, Pre-gradient with 3 ml, gradient elution with 30 ml and elution with 30 ml were carried out. From the results, it was thought that at least two isozymes were present (pI 8.12, 7.02), but the isoelectric point of main fraction was 8.12. Various properties, including the isoelectric point obtained from the above-mentioned results, of AMP deaminase derived from Streptomyces murinus, are shown in FIG. 11.

Data set [5] can be described thus: Feasibility test 2: nuclease and deaminase treatment of yeast lysate carried out simultaneously. The conditions noted are these: simultaneously with nuclease, 70° C., pH5, 3 hours or 5 hours. On the procedure: In test 2, treatment with nuclease and treatment with deaminase were carried out simultaneously. Specifically, the treatment was carried out by the following procedure and the IMP conversion rate was calculated. Firstly, nuclease “AMANO” G (Amano Enzyme Inc., 0.1% w/w yeast solid) and “Deamizyme (50,000 units) (trade name of Amano Enzyme Inc., 0.01 to 0.04% w/w yeast solid)” that is an AMP deaminase agent derived from the test enzyme (Aspergillus melleus) or a crude enzyme solution prepared by using Streptomyces murinus were added to yeast lysate (YL-15, 0.2%) and they were reacted with yeast lysate under the conditions at a temperature of 70° C. and pH5 for a predetermined time (3 hours or 5 hours). Then, the reacted product was heat treated, and then subjected to HPLC analysis. Note here that added amount of AMP deaminase derived from Streptomyces murinus was set so that the activity value thereof became the same as that of “Deamizyme (50,000 u/mg product)” (trade name, Amano Enzyme Inc.)

The nature of a further data set: Substrate specificity. The format is biochemical.
Data set [6] is described as follows: Enzyme kinetics (Km, Vmax). Type of data set: biochemical.

“And” between values parts separate entries of the source, which are not always exact repeats. Equal entries are not always repeated. Where only a bound is given, the exact number is not on record here.

B1: AMP deaminase derived from Streptomyces murinus: thermostable AMP deaminase enzyme produced by Streptomyces murinus IFO14802; amino acid sequence SEQ ID NO: 1 (protein, listed as Streptomyces murinus)
chain: APPPRQATAAEARTDAYLRSVKDRPAALRAFFRQLPKGGDLHNHLSGAVNTDYLIELAAEDGLCIDATMTAVPSPCGPGTRPAADARTDRAFHDAIVRAWSMQDFPPDENGHDHFFDTFGKFGEVTWRHRGKLLAQVADTVVANNQSYLETMVTPASDGAKQLADQVGWDADLTALHRKLAAGGKLDKLVADARKEADDGDAEFRATEHCGTAKARPACGLTVRWISQASRGSSPVRVFTQLDLGMRLAEADSRFVAVNLVQPEDWDSSLENYSLQMRMVGYLRTVYPKAHVTLHAGELWPGLVKPEALKFHIAEAVDIAHTQRVGHGVDLVHEDNWQRTARTMAARQIAVEVPFSSNAQILGVKGAEHPFTTYRRYGVPVVLATDDPGVSRIDISHEYQYAAATYGLGYPELKDLARASLQYAFLPGASLWQGNPTAQGYHPVAACRAERPGQPVHSAACRRLLDGSARARLEWRQEAAFAAFERAHARG
In general, residual activity refers to the share of the control activity or signal that is left under treatment. Low values mean little activity left, high ones much activity left. As usually defined, the Km is the substrate concentration at which the rate is half of its maximum. The term Vmax denotes the rate approached at saturating substrate. For the molecule B1, in data set [1], the residual activity is recorded as no less than 80%. In addition, in data set [2] (acetate buffer solution (pH 5.6)), the “temperature stability (stable at)” value is no more than 65 °C. Further, in data set [2] (treated at 70° C. for 30 minutes, pH 5.6 acetate buffer, untreated = 100%), the residual activity entry was “about 55%”. The “thermostability (residual AMP deaminase activity)” value in data set [3] is listed as “extremely excellent”. Moreover, the “isoelectric point (pI)” value in data set [4] is 8.12 and 7.02. Further, the IMP production entry in data set [5] is recorded as “IMP was produced”. The “action on substrate 5′-UMP” value in “Substrate specificity” is given as “did not act on”. In data set [6], the Km worked out at 950 µM and the Vmax came to 3.5e+07 µmol/min/mg.
